Assay results from PMC7049099 (Cell reports, 2020).

Molecular target: vesicular stomatitis virus (VSV) large (L) protein (vesicular stomatitis virus (VSV) …, UniProt P03523 1-2109)
Assay: cryo-EM structure

vesicular stomatitis virus (VSV) large (L) protein, sequence (P03523 whole entry): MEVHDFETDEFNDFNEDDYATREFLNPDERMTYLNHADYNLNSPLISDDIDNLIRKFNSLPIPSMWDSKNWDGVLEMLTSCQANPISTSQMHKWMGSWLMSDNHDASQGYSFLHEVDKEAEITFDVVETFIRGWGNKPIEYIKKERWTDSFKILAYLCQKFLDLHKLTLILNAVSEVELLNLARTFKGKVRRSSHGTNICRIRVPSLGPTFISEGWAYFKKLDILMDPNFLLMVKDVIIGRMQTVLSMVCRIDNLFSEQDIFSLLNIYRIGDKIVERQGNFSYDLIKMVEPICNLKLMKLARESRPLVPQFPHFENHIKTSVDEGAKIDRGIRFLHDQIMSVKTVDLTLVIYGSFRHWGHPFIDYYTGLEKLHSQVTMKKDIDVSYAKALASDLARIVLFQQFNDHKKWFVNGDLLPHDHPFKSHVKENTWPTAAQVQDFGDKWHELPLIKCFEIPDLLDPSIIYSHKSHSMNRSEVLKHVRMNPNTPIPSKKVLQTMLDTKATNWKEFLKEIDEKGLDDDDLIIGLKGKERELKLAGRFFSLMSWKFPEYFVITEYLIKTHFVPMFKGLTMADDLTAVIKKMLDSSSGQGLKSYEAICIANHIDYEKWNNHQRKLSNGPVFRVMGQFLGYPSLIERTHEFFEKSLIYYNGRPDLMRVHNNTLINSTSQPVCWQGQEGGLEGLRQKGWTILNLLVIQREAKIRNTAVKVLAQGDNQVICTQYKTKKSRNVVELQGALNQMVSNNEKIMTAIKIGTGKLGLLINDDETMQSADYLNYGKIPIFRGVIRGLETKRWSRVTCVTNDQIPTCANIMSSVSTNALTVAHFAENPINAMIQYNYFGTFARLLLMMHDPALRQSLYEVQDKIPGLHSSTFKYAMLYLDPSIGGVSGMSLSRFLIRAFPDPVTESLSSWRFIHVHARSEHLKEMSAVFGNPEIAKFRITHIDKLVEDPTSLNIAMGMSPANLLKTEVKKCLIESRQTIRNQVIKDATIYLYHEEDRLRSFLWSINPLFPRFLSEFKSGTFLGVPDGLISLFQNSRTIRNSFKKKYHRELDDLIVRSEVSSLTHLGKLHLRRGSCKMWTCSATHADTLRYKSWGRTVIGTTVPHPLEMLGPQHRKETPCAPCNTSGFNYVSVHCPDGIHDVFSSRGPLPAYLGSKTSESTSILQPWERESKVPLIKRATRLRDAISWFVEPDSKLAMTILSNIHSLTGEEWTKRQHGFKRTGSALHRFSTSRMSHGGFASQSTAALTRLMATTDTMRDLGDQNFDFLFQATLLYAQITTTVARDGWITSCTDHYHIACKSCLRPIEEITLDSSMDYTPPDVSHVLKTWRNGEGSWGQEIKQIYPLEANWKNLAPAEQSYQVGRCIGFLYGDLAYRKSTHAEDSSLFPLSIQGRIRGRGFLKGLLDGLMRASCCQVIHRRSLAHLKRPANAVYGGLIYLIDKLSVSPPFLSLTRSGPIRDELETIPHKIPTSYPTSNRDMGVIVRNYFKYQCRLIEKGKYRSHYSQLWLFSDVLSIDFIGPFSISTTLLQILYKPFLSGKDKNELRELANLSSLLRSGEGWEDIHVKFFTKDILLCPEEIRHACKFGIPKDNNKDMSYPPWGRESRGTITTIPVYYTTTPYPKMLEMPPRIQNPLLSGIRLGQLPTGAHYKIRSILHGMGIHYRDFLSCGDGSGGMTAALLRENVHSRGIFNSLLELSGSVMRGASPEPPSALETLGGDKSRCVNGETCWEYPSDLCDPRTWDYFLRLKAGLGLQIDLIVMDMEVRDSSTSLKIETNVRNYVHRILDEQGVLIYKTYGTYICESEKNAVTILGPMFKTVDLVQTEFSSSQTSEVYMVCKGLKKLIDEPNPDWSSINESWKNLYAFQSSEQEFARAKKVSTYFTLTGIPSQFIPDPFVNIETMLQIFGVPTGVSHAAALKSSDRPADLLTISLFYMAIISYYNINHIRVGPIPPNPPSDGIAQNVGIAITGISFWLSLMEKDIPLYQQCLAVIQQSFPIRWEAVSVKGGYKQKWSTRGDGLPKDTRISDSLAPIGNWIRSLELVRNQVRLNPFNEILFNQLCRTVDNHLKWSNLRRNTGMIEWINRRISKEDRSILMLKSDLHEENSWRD

B1: VSV phosphoprotein (P) fragment, residues 35-106 (domain or fragment)
chain: SNYELFQEDGVEEHTKPSYFQAADDSDTESEPEIEDNQGLYAQDPEAEQVEGFIQGPLDDYADEEVDVVFTS
  binding result: binds
